Measured values from the supplement of paper PMC10201428.
± gives the standard deviation of the averaged measurements.

B1: library; a variant is named by its letters at N, in order (parent)
chain: AATGTTGTTGATGCAACCATAAAGTGATATTTAATAATTATTTATAATCAGCAACTTAACCACAAAACAACCATATATTGATATNTCACAAAACAACCATAANTTGATATTTTTGTGAATCGAGTATTTCAGCAAAACTACTGCAGTAAGAA

Legend:
[1] = variants of: B1; assay: relative integration efficiency (T-LR orientation) vs wild-type transposon end (log2 (normalized fold change)); transposon end mutated: left end; higher = more efficient transposition; settings: with VchCAST RNA-guided transposition machinery (E. coli BL21(DE3) host, lacZ target)
In short: (§1)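 Barcoded pools of 1549 left-end or 1849 right-end transposon variants were cloned into a pUC57 mini-transposon donor. Each pool was co-transformed with a T7-driven effector plasmid (CRISPR array, tniQ-cas8-cas7-cas6, tnsA-tnsB-tnsC) into E. coli BL21(DE3) and plated with 0.1 mM IPTG at 37°C for 18 h. Input plasmids and genomic integration junctions were PCR-amplified and Illumina-sequenced, with two biological output replicates and four wild-type barcodes as reference. Relative integration efficiency is output/input barcode abundance fold change, normalised to wild-type barcodes and log-transformed.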

[2] = variants of: B1; assay: relative integration efficiency (T-RL orientation) vs wild-type transposon end (log2 (normalized fold change)); transposon end mutated: left end; higher = more efficient transposition; settings: with VchCAST RNA-guided transposition machinery (E. coli BL21(DE3) host, lacZ target)
In short: as §1

Row | Variant | relative integration efficiency (log2) [1] | relative integration efficiency (log2) [2]
1 | CG C17G C18G A19T T20A | -1.28 ± 0.64 | -1.56 ± 0.94
2 | CG A95C A96C | -0.693 ± 0.86 | -0.385 ± 0.4
3 | CG G51T | 0.637 ± 0.29 | 0.00628 ± 0.18
4 | CG T38A | 0.0433 ± 0.41 | -0.123 ± 0.054
5 | CG T74G A75C | -2.15 ± 0.86 | -2.21 ± 0.94
6 | CG G117T A118C | 0.251 ± 0.35 | 0.0866 ± 0.029
7 | CG A50C | -0.533 ± 0.31 | -0.119 ± 0.099
8 | TA A16C G24T T32G A33C T76A T78A T84A C87A A96C T112G T113C | -0.572 ± 0.31 | -0.447 ± 0.34
9 | CG A99C | -1.01 ± 0.78 | -1.23 ± 0.65
10 | CC A21T A22T A23T G24C A75T T76A A77T T78A A101T A102T T104A | -2.73 ± 1.6 | -2.03 ± 0.58
11 | TA A22T G24T T31C A33C T76A T78G C87A T104G T113A | -0.379 ± 0.48 | -0.685 ± 0.35
12 | CG T12A T30A T31C T32A A77C T86G | -0.709 ± 0.52 | -0.451 ± 0.25
13 | CG A62T C63G A64T A65T | 0.238 ± 0.12 | 0.339 ± 0.046
14 | TG A16C G24T T30A T76A T78A T84A C87A | 0.0694 ± 0.32 | 0.372 ± 0.36
15 | CG C63G | 0.324 ± 0.23 | 0.223 ± 0.039
16 | CG T12A G13A A77C T86G | -0.125 ± 0.28 | -0.319 ± 0.14
17 | CG A16T C17G | -0.34 ± 0.47 | -0.0955 ± 0.095
18 | CG A91C A92C | 0.242 ± 0.39 | -0.116 ± 0.2
19 | CG C60G | 0.358 ± 0.26 | -0.0988 ± 0.017

Row | Variant | relative integration efficiency (log2) [1] | relative integration efficiency (log2) [2]
20 | TA A16C G24T T32G A33C T76A T78A T84A C87A A102T T111C T113C | -0.59 ± 0.77 | -0.405 ± 0.22
21 | CG A1T | 0.281 ± 0.54 | 0.063 ± 0.045
22 | CA A22T G24T T31C A33C A102T T111C T113C | -0.528 ± 0.39 | -0.843 ± 0.57
23 | CG T38A T39A | 0.516 ± 0.23 | 0.474 ± 0.18
24 | CG A16C C17A | -0.804 ± 0.72 | -0.728 ± 0.41
25 | CG A69G | -0.41 ± 0.78 | -0.422 ± 0.41
26 | CG A69C | -0.309 ± 0.7 | -0.363 ± 0.1
27 | CG A93T C94G | -1.04 ± 0.89 | -1.35 ± 0.65
28 | CG T12A G13A T32A A77C T86G | 0.117 ± 0.45 | -0.0481 ± 0.05
29 | CG A34T A36G A37T T38G T39A A40G T41C T42G T43G T48C C49A | -2.77 ± 0.75 | -2.86 ± 0.81
30 | TA A22T G24T T31C A33C T76A A77G C87T T104A T110A T113A | 0.0775 ± 0.37 | -0.819 ± 0.52
31 | CA A23G G24T A33T A102T T111C T113C | -0.354 ± 0.18 | -0.967 ± 0.39
32 | CG G80C A81T T82A A83T | -2 ± 1.1 | -1.88 ± 0.77
33 | CG T5A | -0.149 ± 0.06 | -0.22 ± 0.057
34 | CG T114A | -0.000535 ± 0.15 | -0.291 ± 0.097
35 | CG T78A T79A G80C A81T | -1.07 ± 0.89 | -1.38 ± 0.59
36 | CG G24A | 0.726 ± 0.12 | 0.3 ± 0.075
37 | CG C94G A95T | -2.11 ± 0.65 | -1.23 ± 0.53
38 | CG A46T A47T T48G C49T A50G G51A C52G A53C A54G C55G T56A C61A | -1.93 ± 2 | -1.9 ± 0.78

Row | Variant | relative integration efficiency (log2) [1] | relative integration efficiency (log2) [2]
39 | CG A34C | 0.459 ± 0.34 | 0.215 ± 0.064
40 | CG A34T | 0.848 ± 0.42 | 0.709 ± 0.11
41 | CG T105A G106C A107T T108A | -1.32 ± 0.25 | -1.6 ± 0.76
42 | CG T48A C49G | 0.449 ± 0.71 | 0.353 ± 0.18
43 | TA G24A T30A T76A T78A T84A C87A A96C T110A T113A | 0.0142 ± 0.25 | 0.0999 ± 0.18
44 | CG A37T | 0.0565 ± 0.29 | -0.0666 ± 0.052
45 | CG T108G A109C T110G T111G | -2.71 ± 1.1 | -1.63 ± 0.69
46 | TG G24A T30A A70C T76A T84A C87A | 0.298 ± 0.13 | -0.172 ± 0.16
47 | CG G51T C52A | 0.348 ± 0.34 | 0.159 ± 0.19
48 | TA A22T G24T T31C A33C A70C T76A T84A C87A A102T T111C T113C | -0.102 ± 0.33 | -0.168 ± 0.35
49 | CG C60G C61G | 0.337 ± 0.57 | -0.185 ± 0.23
50 | CG A81C T82G A83C T84G | -1.87 ± 0.22 | -1.9 ± 0.68
51 | TA A16C G24T T32G A33C A70C T76A T86G A96C T110A T113A | -0.842 ± 0.018 | -0.63 ± 0.38
52 | CG T12A G13A T31C A77C T86G | -0.319 ± 0.56 | -0.196 ± 0.058
53 | CG T84C | -0.172 ± 0.0094 | -0.158 ± 0.056
54 | CG C97A C98A A99C T100G | -1.52 ± 0.82 | -2.58 ± 1
55 | CG T39A A40T | 0.255 ± 0.22 | 0.244 ± 0.039
56 | CG G26C A27T T28A A29T | -1.67 ± 0.28 | -1.58 ± 0.67
57 | TA A16C G24T T30A A70C T76A T86G A96C T110A T113A | -0.0192 ± 0.24 | -0.213 ± 0.29
